Here are results for six sequences from the supplement of paper PMC5998384.

The test system of data set [1] is HeLa Kyoto. The data set can be described thus: solubility change mitosis vs G1/S (difference of NP-40 vs SDS log2 ratios) (log2 ratio difference); higher = more soluble in mitosis.
In data set [2] the test system is HeLa Kyoto. In words: melting temperature (median over replicates), in situ; higher = more thermally stable.
Data set [3] concerns HeLa Kyoto. The data set can be described thus: solubility in G1/S (NP-40 vs SDS abundance) (log2 ratio); higher = more soluble. As to conditions: cell cycle stage: G1/S.
The subject of data set [4] is HeLa Kyoto. In words: thermal stability score vs G1/S (z-score of summed log2 fold changes over temperatures); higher = more thermally stable than in G1/S.
The mark [5] stands for this setting: cell cycle stage: early G1 (4.5 h after nocodazole release).
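Wherever melting temperature (median over replicates), in situ is given: HeLa Kyoto cells synchronized by double thymidine or nocodazole block, proteins quantified by TMT10plex mass spectrometry, three independent biological replicates.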
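Wherever solubility change mitosis vs G1/S (difference of NP-40 vs SDS log2 ratios) is given: synchronized HeLa Kyoto cells (double thymidine block for G1/S, nocodazole release for mitosis), protein amounts in NP-40 versus SDS lysates quantified by mass spectrometry, three biological replicates.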
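Wherever solubility in G1/S (NP-40 vs SDS abundance) is given: HeLa Kyoto cells arrested at G1/S by double thymidine block, proteins quantified by TMT10plex mass spectrometry in mild NP-40 versus SDS extracts, three biological replicates.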
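Wherever thermal stability score vs G1/S (z-score of summed log2 fold changes over temperatures) is given: synchronized HeLa Kyoto cells, proteins quantified by TMT10plex mass spectrometry, three biological replicates, mitosis taken 0.5 h after nocodazole release, G1/S directly after double thymidine block.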

For “MQAARMAASLGRQLLRLGGGSSRLTALLGQPRPGPARRPYAGGAAQLALDKSDSHPSDALTRKKPAKAESKSFAVGMFKGQLTTDQVFPYPSVLNEEQTQFLKELVEPVSRFFEEVNDPAKNDALEMVEETTWQGLKELGAFGLQVPSELGGVGLCNTQYARLVEIVGMHDLGVGITLGAHQSIGFKGILLFGTKAQKEKYLPKLASGETVAAFCLTEPSSGSDAASIRTSAVPSPCGKYYTLNGSKLWISNGGLADIFTVFAKTPVTDPATGAVKEKITAFVVERGFGGITHGPPEKKMGIKASNTAEVFFDGVRVPSENVLGEVGSGFKVAMHILNNGRFGMAAALAGTMRGIIAKAVDHATNRTQFGEKIHNFGLIQEKLARMVMLQYVTESMAYMVSANMDQGATDFQIEAAISKIFGSEAAWKVTDECIQIMGGMGFMKEPGVERVLRDLRIFRIFEGTNDILRLFVALQGCMDKGKELSGLGSALKNPFGNAGLLLGEAGKQLRRRAGLGSGLSLSGLVHPELSRSGELAVRALEQFATVVEAKLIKHKKGIVNEQFLLQRLADGAIDLYAMVVVLSRASRSLSEGHPTAQHEKMLCDTWCIEAAARIREGMAALQSDPWQQELYRNFKSISKALVERGGVVTSNPLGF [ACADVL]”, the “solubility change mitosis (log2)” value with HeLa Kyoto [1] was -0.118. The melting temperature in the data set with HeLa Kyoto [2] (cell cycle stage: G1/S) was 54.9 °C; in the data set with HeLa Kyoto [2] (cell cycle stage: mitosis), 55 °C. In addition, the “solubility in G1/S (log2)” value with HeLa Kyoto [3] is 0.117. Also, the thermal stability score in the data set with HeLa Kyoto [4] (setting [5]) was 0.172; with HeLa Kyoto [4] (cell cycle stage: mitosis), -2.03.
On to “MQAERGARGGRGRRPGRGRPGGDRHSERPGAAAAVARGGGGGGGGDGGGRRGRGRGRGFRGARGGRGGGGAPRGSRREPGGWGAGASAPVEDDSDAETYGEENDEQGNYSKRKIVSNWDRYQDIEKEVNNESGESQRGTDFSVLLSSAGDSFSQFRFAEEKEWDSEASCPKQNSAFYVDSELLVRALQELPLCLRLNVAAELVQGTVPLEVPQVKPKRTDDGKGLGMQLKGPLGPGGRGPIFELKSVAAGCPVLLGKDNPSPGPSRDSQKPTSPLQSAGDHLEEELDLLLNLDAPIKEGDNILPDQTSQDLKSKEDGEVVQEEEVCAKPSVTEEKNMEPEQPSTSKNVTEEELEDWLDSMIS [AVEN]”, for which the “solubility change mitosis (log2)” value with HeLa Kyoto [1] turned out to be 0.0958. Also, the melting temperature in the data set with HeLa Kyoto [2] (cell cycle stage: G1/S) stood at 52.9 °C; in the data set with HeLa Kyoto [2] (cell cycle stage: mitosis) it was 52.6 °C. In addition, the “solubility in G1/S (log2)” value in the data set on HeLa Kyoto [3] was 0.312. In addition, the thermal stability score in the data set on HeLa Kyoto [4] (setting [5]) is -0.264; with HeLa Kyoto [4] (cell cycle stage: mitosis) it was -2.4.
Consider “MQAGKPILYSYFRSSCSWRVRIALALKGIDYKTVPINLIKDRGQQFSKDFQALNPMKQVPTLKIDGITIHQSLAIIEYLEEMRPTPRLLPQDPKKRASVRMISDLIAGGIQPLQNLSVLKQVGEEMQLTWAQNAITCGFNALEQILQSTAGIYCVGDEVTMADLCLVPQVANAERFKVDLTPYPTISSINKRLLVLEAFQVSHPCRQPDTPTELRA [GSTZ1]”, for which the “solubility change mitosis (log2)” value with HeLa Kyoto [1] stood at 0.0886. The melting temperature in the data set on HeLa Kyoto [2] (cell cycle stage: G1/S) came out at 53.5 °C; with HeLa Kyoto [2] (cell cycle stage: mitosis), 52.9 °C. Moreover, the “solubility in G1/S (log2)” value in the data set with HeLa Kyoto [3] was 0.447. Moreover, the thermal stability score in the data set with HeLa Kyoto [4] (setting [5]) was -2.37; in the data set with HeLa Kyoto [4] (cell cycle stage: mitosis) it was -2.09.
As to “MQAHELFRYFRMPELVDFRQYVRTLPTNTLMGFGAFAALTTFWYATRPKPLKPPCDLSMQSVEVAGSGGARRSALLDSDEPLVYFYDDVTTLYEGFQRGIQVSNNGPCLGSRKPDQPYEWLSYKQVAELSECIGSALIQKGFKTAPDQFIGIFAQNRPEWVIIEQGCFAYSMVIVPLYDTLGNEAITYIVNKAELSLVFVDKPEKAKLLLEGVENKLIPGLKIIVVMDAYGSELVERGQRCGVEVTSMKAMEDLGRANRRKPKPPAPEDLAVICFTSGTTGNPKGAMVTHRNIVSDCSAFVKATENTVNPCPDDTLISFLPLAHMFERVVECVMLCHGAKIGFFQGDIRLLMDDLKVLQPTVFPVVPRLLNRMFDRIFGQANTTLKRWLLDFASKRKEAELRSGIIRNNSLWDRLIFHKVQSSLGGRVRLMVTGAAPVSATVLTFLRAALGCQFYEGYGQTECTAGCCLTMPGDWTAGHVGAPMPCNLIKLVDVEEMNYMAAEGEGEVCVKGPNVFQGYLKDPAKTAEALDKDGWLHTGDIGKWLPNGTLKIIDRKKHIFKLAQGEYIAPEKIENIYMRSEPVAQVFVHGESLQAFLIAIVVPDVETLCSWAQKRGFEGSFEELCRNKDVKKAILEDMVRLGKDSGLKPFEQVKGITLHPELFSIDNGLLTPTMKAKRPELRNYFRSQIDDLYSTIKV [ACSL1]”, the “solubility change mitosis (log2)” value in the data set with HeLa Kyoto [1] is -0.213. The results for the melting temperature in the data set on HeLa Kyoto [2] (cell cycle stage: G1/S) and in the data set on HeLa Kyoto [2] (cell cycle stage: mitosis) were 51.6 °C and 52.1 °C, respectively. Further, the “solubility in G1/S (log2)” value in the data set with HeLa Kyoto [3] came to 0.0525. Besides, the results for the thermal stability score in the data set on HeLa Kyoto [4] (setting [5]) and in the data set on HeLa Kyoto [4] (cell cycle stage: mitosis) were -0.625 and -1.37, respectively.
For the sequence “MQALRHVVCALSGGVDSAVAALLLRRRGYQVTGVFMKNWDSLDEHGVCTADKDCEDAYRVCQILDIPFHQVSYVKEYWNDVFSDFLNEYEKGRTPNPDIVCNKHIKFSCFFHYAVDNLGADAIATGHYARTSLEDEEVFEQKHVKKPEGLFRNRFEVRNAVKLLQAADSFKDQTFFLSQVSQDALRRTIFPLGGLTKEFVKKIAAENRLHHVLQKKESMGMCFIGKRNFEHFLLQYLQPRPGHFISIEDNKVLGTHKGWFLYTLGQRANIGGLREPWYVVEKDSVKGDVFVAPRTDHPALYRDLLRTSRVHWIAEEPPAALVRDKMMECHFRFRHQMALVPCVLTLNQDGTVWVTAVQAVRALATGQFAVFYKGDECLGSGKILRLGPSAYTLQKGQRRAGMATESPSDSPEDGPGLSPLL [TRMU]”, in the data set on HeLa Kyoto [1], the “solubility change mitosis (log2)” value is -0.134. Further, the melting temperature with HeLa Kyoto [2] (cell cycle stage: G1/S) amounted to 50.7 °C; in the data set with HeLa Kyoto [2] (cell cycle stage: mitosis) it was 51.1 °C. Further, in the data set with HeLa Kyoto [3], the “solubility in G1/S (log2)” value is -0.242. In addition, the thermal stability score worked out at 0.5 with HeLa Kyoto [4] (setting [5]) and 0.388 in the data set with HeLa Kyoto [4] (cell cycle stage: mitosis).
Take “MQPQSVLHSGYFHPLLRAWQTATTTLNASNLIYPIFVTDVPDDIQPITSLPGVARYGVKRLEEMLRPLVEEGLRCVLIFGVPSRVPKDERGSAADSEESPAIEAIHLLRKTFPNLLVACDVCLCPYTSHGHCGLLSENGAFRAEESRQRLAEVALAYAKAGCQVVAPSDMMDGRVEAIKEALMAHGLGNRVSVMSYSAKFASCFYGPFRDAAKSSPAFGDRRCYQLPPGARGLALRAVDRDVREGADMLMVKPGMPYLDIVREVKDKHPDLPLAVYHVSGEFAMLWHGAQAGAFDLKAAVLEAMTAFRRAGADIIITYYTPQLLQWLKEE [ALAD]”: the “solubility change mitosis (log2)” value with HeLa Kyoto [1] is -0.212. Moreover, the melting temperature in the data set with HeLa Kyoto [2] (cell cycle stage: G1/S) was 57 °C; with HeLa Kyoto [2] (cell cycle stage: mitosis), 55.2 °C. The “solubility in G1/S (log2)” value in the data set on HeLa Kyoto [3] was found to be 0.106. The thermal stability score was -2.61 in the data set on HeLa Kyoto [4] (setting [5]) and -2.88 with HeLa Kyoto [4] (cell cycle stage: mitosis).
